Measured values: patent EP4630447A2

Legend:
Test in all cases: sVNT, Table 2
[1] = target: SARS-CoV-2 spike trimer, BQ.1 (SARS-CoV-2)
[2] = target: SARS-CoV-2 spike trimer, XBB (SARS-CoV-2)
[3] = target: SARS-CoV-2 spike trimer, XBB.1.5 (SARS-CoV-2)
[4] = target: SARS-CoV-2 spike trimer, XBB.1 (SARS-CoV-2)
[5] = target: SARS-CoV-2 spike trimer, BQ.1.1 (SARS-CoV-2)

Measured: IC50

Bebtelovimab (antibody)
> 1 µg/mL: all assays above
